Measurements from article PMC9025068, “DNA-Binding Properties of a Novel Crenarchaeal Chromatin-Organizing Protein in Sulfolobus acidocaldarius” (Biomolecules, 2022).

What was measured:
[1] = tested on: Sul12a (Sulfolobus acidocaldarius); assay: EMSA; conditions: KDapp, salmon sperm DNA 25 ug/mL, 20 mM Tris-HCl pH 8.0, 1 mM MgCl2, 0.1 mM DTT, 12.5% glycerol, 50 mM NaCl, 0.4 mM EDTA, 37 C 20 min, 0.1 nM 32P-DNA with 25 ug/mL salmon sperm DNA …
[2] = molecular target: the molecule itself; assay: SDS-PAGE with western blot; 100 and 250 ug purified Sul12a separated by SDS-PAGE (4-12%), blotted on PVDF, probed with HRP-conjugated anti-polyHistidine antibodies

carAB promoter region (F2)
Kd ([1]; F1 + F2 mixture): 1200 nM

argO promoter region (F3)
Kd ([1]; F1 + F3 mixture): 3700 nM

B1: Sul12a (natural protein, Sulfolobus acidocaldarius, UniProt Q4JA12 1-107, looked up)
chain: MELTPRLQDIISILKEKGGSVNIRDLALQLKISPKTAKGYARELYRLGYIEMDENENMILKRENPENITDLKKTVETHTAEIEALKKEVEFLKEELSRFRGTKKVKV
notes: Sul12a of Sulfolobus acidocaldarius, encoded by the 324-bp gene Saci_1012; 107 amino acids, native MW 12.4 kDa (recombinant His-tagged monomer 14.3 kDa); the Saci_1012 coding region was amplified from genomic DNA and cloned in pET-45b(+); The preparation also held lower-MW species without tag (contaminants or degradation products); also called Saci_1012; not shown: His tag, N-terminal, kept
stoichiometry N [2]: 2
